Experimental findings from paper PMC3017645 (Journal of molecular biology, 2010) are described below.

The target of the assay is T1, Nnf1p-6xHis (budding yeast (S. cerevisiae), UniProt P47149 1-201).
T1 sequence (looked up): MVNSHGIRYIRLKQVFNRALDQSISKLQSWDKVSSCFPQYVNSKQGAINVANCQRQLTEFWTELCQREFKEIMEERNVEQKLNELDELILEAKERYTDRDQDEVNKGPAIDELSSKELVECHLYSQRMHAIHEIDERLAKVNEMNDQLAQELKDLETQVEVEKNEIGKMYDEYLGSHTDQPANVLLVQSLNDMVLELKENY
In words: co-purification of co-expressed subunits.

B1: Dsn1p (natural protein, budding yeast (S. cerevisiae), UniProt P40568 1-576, looked up)
chain: MSLEPTQTVSGTPPMLHQRTHKQVYPLRMETIPILESDSKATLQSNEPTQKDEEETEYFENKQSVSNLSPDLKFKRHKNKHIQGFPTLGERLDNLQDIKKAKRVENFNSSAPIADDNHSGDATANATANATANATANVNASAMPAPYMPYYYYYHPMNAPTPAMIPYPGSPMHSIMPNSSLQPFYSQPTAAGGPDMTTPQNISSSQQLLPAPQLFPYGSFHQQQLQQPHYIQRTRERKKSIGSQRGRRLSMLASQANGGSTIISPHKDIPEEDFYTVVGNASFGKNLQIRQLFNWCLMRSLHKLELKAKNQEEEGELEHLTKKSKLESTKAETDYVDPKRLAMVIIKEFVDDLKKDHIAIDWEDEEKYEDEDEEKILDNTENYDDTELRQLFQENDDDDDDDDEVDYSEIQRSRRKFSERRKALPKEPKKLLPNSKNVENTKNLSILTSKVNAIKNEVKEWAVTLDTSRPDLEWQELTSFSSQPLEPLSDTEEPDLAIADVETKLETKVDELRYQSHILNSHSLALNEITNSKVNKLNIETMRKISSETDDDHSQVINPQQLLKGLSLSFSKKLDL
What is called stoichiometry N is the number of molecules, sites or subunits per partner or assembly. Turning to B1, the “stoichiometry N” value came to 1.

B2: Mtw1p (natural protein, budding yeast (S. cerevisiae), UniProt P39731 1-289, looked up)
chain: MSAPTMRSTSILTEHLGYPPISLVDDIINAVNEIMYKCTAAMEKYLLSKSKIGEEDYGEEIKSGVAKLESLLENSVDKNFDKLELYVLRNVLRIPEEYLDANVFRLENQKDLVIVDENELKKSEEKLREKVNDVELAFKKNEMLLKRVTKVKRLLFTIRGFKQKLNELLKCKDDVQLQKILESLKPIDDTMTLLTDSLRKLYVDSESTSSTEEVEALLQRLKTNGKQNNKDFRTRYIDIRTNNVLRKLGLLGDKEDEKQSAKPDARTQAGDIVSIDIEEPQLDLLDDVL
With B2, the “stoichiometry N” value was 1.

B3: Nsl1p (natural protein, budding yeast (S. cerevisiae), UniProt Q12143 1-216, looked up)
chain: MSQGQSKKLDVTVEQLRSIYHQFHDILEEKTDLHLPKKEYDDDAVRREVQIQLQEFLLSAMTMASKSLEVVNADTVGKTVKQLIMESQEKYMEPFDLDLNEQVRKMYQEWEDETVKVAQLRQTGPAKINEVYNNSKDEYLAQLDGRIGVLQARMMQQQSADHDDSTDDADDHINWEHIKQDYVASLNELYQTQQDLPKVRYNVEKVKRLMDFLEED
For the molecule B3, the “stoichiometry N” value was 1.
